Data on two substances can be found in publication PMC8185548.

In this experiment the target is CD47 (mouse (endogenous in AB1 cells)) (UniProt Q61735). Kind of experiment: proximity ligation; fixed MM (AB1) cells on coverslips, resting (PBS) or treated overnight with 400 nM BoxA or 10 nM CXCL12; primary antibodies to CD47 together with anti-CXCR4, anti-RAGE or anti-TLR4; Duolink probes; confocal imaging, signal per cell quantified.
Sequence of UniProt Q61735 (Q61735 19-303): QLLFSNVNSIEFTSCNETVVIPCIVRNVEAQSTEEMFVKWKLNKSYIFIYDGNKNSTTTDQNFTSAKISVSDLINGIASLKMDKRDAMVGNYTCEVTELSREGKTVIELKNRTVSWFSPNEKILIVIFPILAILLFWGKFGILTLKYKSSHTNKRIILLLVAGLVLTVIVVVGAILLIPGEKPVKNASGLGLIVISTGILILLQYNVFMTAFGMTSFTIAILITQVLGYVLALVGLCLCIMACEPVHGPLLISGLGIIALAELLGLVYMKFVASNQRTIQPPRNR

Consider “RAGE (from UniProt Q62151 23-402) (receptor)”, for which the PLA signal, fold lower than that of CD47 and CXCR4 (fold lower than CD47/CXCR4) came to 100.

“TLR4 (from UniProt Q9QUK6 26-835) (receptor)”: the PLA signal, fold lower than that of CD47 and CXCR4 (fold lower than CD47/CXCR4) is 100.
